Assay results reported in patent US20110002926A1 (MEDICAL RESEARCH COUNCIL, published 2011).
Changes are numbered by the printed parent chain. Where two headings read alike, the source gives them in different places. Where no end group is shown, it is not given here.

Legend:
E2 peptide B1 [1] = target: T1, E2 peptide B1 (not fully specified (residue 16, C-terminus); also: biotin at C-terminal GSGK, site not given here); assay: peptide ELISA, signal as percent of maximum H6 binding
T1 peptide: NLINTNGSWHINGSGK

[2] = target: T2, peptide H6 (AP33 mimotope) (not fully specified (residue 16, C-terminus); printed as VELRNLGGTWRPGSGK-biotin; also: biotin at C-terminal GSGK, site not given here); assay: peptide ELISA, biotinylated peptide on streptavidin, COS7 supernatant, OD 655 nm
T2 construct: Mimotope for AP33 identified by phage display; captured on streptavidin plates; also called mimotope H6; H6 mimotope
T2 peptide: VELRNLGGTWRPGSGK

Peptide D3 [3] = target: T3, Peptide D3 (also: C-terminal linker GSGK-biotin, biotin attachment not given here); assay: as above
T3 peptide: QLINTNGSWHINGSGK

[4] = target: T2, peptide H6 (AP33 mimotope); assay: as above
Peptide D3 [5] = target: T3, Peptide D3; assay: as above
[6] = target: T2, peptide H6 (AP33 mimotope); assay: as above
E2 peptide B1 [7] = target: T1, E2 peptide B1; assay: as above
E2 peptide B1 [8] = target: T1, E2 peptide B1; assay: as above
E2 peptide B1 [9] = target: T1, E2 peptide B1; assay: as above
[10] = target: T2, peptide H6 (AP33 mimotope); assay: as above
E2 peptide B1 [11] = target: T1, E2 peptide B1; assay: as above
E2 peptide B1 [12] = target: T1, E2 peptide B1; assay: as above
Peptide D3 [13] = target: T3, Peptide D3; assay: as above
[14] = target: T2, peptide H6 (AP33 mimotope); assay: as above
Peptide D3 [15] = target: T3, Peptide D3; assay: as above
[16] = target: T2, peptide H6 (AP33 mimotope); assay: as above
E2 peptide B1 [17] = target: T1, E2 peptide B1; assay: as above
[18] = target: HCV E1E2 glycoproteins of genotype 2a JFH1 on HCVpp (Hepatitis C virus genotype 2a, UniProt Q99IB8 384-750; Q99IB8 192-383); assay: cell-based or functional assay
[19] = target: HCV E1E2 glycoproteins of genotype 3a F4/2-35 on HCVpp (Hepatitis C virus genotype 3a); assay: cell-based or functional assay
[20] = target: HCV E1E2 glycoproteins of isolate 2A2.4 on HCVpp (Hepatitis C virus genotype 2); assay: cell-based or functional assay
[21] = target: HCV E1E2 glycoproteins of isolate 4.21.16 on HCVpp (Hepatitis C virus genotype 4); assay: cell-based or functional assay
[22] = target: HCV E1E2 glycoproteins of isolate 6.5.8 on HCVpp (Hepatitis C virus genotype 6); assay: cell-based or functional assay
[23] = target: HCV E1E2 glycoproteins of isolate 1A20.8 on HCVpp (Hepatitis C virus genotype 1); assay: cell-based or functional assay
[24] = target: HCV E1E2 glycoproteins of isolate 1B5.23 on HCVpp (Hepatitis C virus genotype 1); assay: cell-based or functional assay
[25] = target: HCV E1E2 glycoproteins of isolate 2B1.1 on HCVpp (Hepatitis C virus genotype 2); assay: cell-based or functional assay
[26] = target: HCV E1E2 glycoproteins of isolate 5.15.11 on HCVpp (Hepatitis C virus genotype 5); assay: cell-based or functional assay
Peptide D3 [27] = target: T3, Peptide D3; assay: peptide ELISA, signal as percent of maximum H6 binding
Peptide D3 [28] = target: T3, Peptide D3; assay: peptide ELISA, biotinylated peptide on streptavidin, COS7 supernatant, OD 655 nm
[29] = target: T2, peptide H6 (AP33 mimotope); assay: as above
E2 peptide B1 [30] = target: T1, E2 peptide B1; assay: as above

HCV E1E2 glycoproteins of genotype 2a JFH1 on HCVpp, sequence (Q99IB8 384-750 limits assumed, chain 1 of 2): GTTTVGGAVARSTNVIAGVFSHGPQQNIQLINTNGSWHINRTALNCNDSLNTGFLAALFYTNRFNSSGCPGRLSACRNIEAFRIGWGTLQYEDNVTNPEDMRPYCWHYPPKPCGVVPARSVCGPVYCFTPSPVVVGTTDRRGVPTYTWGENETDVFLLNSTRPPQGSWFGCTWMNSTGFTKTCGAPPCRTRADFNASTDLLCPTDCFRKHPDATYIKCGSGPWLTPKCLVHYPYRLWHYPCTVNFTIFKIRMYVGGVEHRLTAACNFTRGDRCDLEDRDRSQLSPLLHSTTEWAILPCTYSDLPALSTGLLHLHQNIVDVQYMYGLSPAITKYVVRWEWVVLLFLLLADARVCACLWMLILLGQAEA
HCV E1E2 glycoproteins of genotype 2a JFH1 on HCVpp, sequence (Q99IB8 192-383 limits assumed, chain 2 of 2): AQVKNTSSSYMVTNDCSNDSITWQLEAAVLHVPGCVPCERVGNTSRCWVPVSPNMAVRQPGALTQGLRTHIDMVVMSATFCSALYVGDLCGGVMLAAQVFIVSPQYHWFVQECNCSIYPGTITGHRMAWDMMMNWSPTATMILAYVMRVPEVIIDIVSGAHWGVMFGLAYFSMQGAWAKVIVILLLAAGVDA

B1: humanized AP33 antibody RHb-h/RK2bc (antibody, V domains shown)
VH: QVQLQESGPGLVKPSETLSLTCTVSGDSITSGYWNWIRQPPGRALEYMGYISYSGSTYYNLSLRSRITISRDTSKNQYSLRLSSVTAADTAMYYCALITTTTYAMDYWGQGTTVTVS
VL: EIVLTQSPSSLSASVGDRVTITCRASESVDGYGNSFLHWFQQKPGKAPKLLIYLASNLNSGVPSRFSGSGSRTDFTLTISSLQPEDFATYYCQQNNVDPWTFGQGTKLEIK
notes: also called RHbcdefgh/RK2bc; RHb-h standard
binding result (E2 peptide B1 [1]): no binding (tested: at least about 500 ng/ml)
EC50 (read off the curve) [2]: ~0.04 µg/mL
EC50 (read off the curve) (Peptide D3 [3]): ~0.05 µg/mL
EC50 (read off the curve) [4]: ~0.04 µg/mL

B2: humanized AP33 antibody RH-C/RK2bc (antibody, V domains shown)
VH: QVQLQESGPGLVKPSETLSLTCTVSGDSITSGYWNWIRQPPGRALEWMGYISYSGSTYYNLSLRSRITISRDTSKNQYSLRLSSVTAADTAMYYCALITTTTYAMDYWGQGTTVTVSS
VL: B1 VL
notes: also called RH-C (peptide ELISA, paired with RK2bc)
EC50 (read off the curve) (Peptide D3 [5]): ~0.05 µg/mL
EC50 (read off the curve) [6]: ~0.04 µg/mL
binding result (E2 peptide B1 [7]): no binding (tested: about 2000 ng/ml)

B3: humanized AP33 antibody RH-F/RK2bc (antibody, V domains shown)
VH: B1 VH with R71V
VL: B1 VL
binding result (E2 peptide B1 [8]): no binding (tested: about 500 ng/ml)

B4: AP33 RH-B/RK2bc (antibody, V domains shown)
VH: B2 VH with T30S, W47Y
VL: B1 VL
binding result (E2 peptide B1 [9]): no binding (tested: about 800 ng/ml)

B5: humanized AP33 antibody RH-G/RK2bc (antibody, V domains shown)
VH: B1 VH with Y78F
VL: B1 VL
EC50 (read off the curve) [10]: ~0.03 µg/mL
binding result (E2 peptide B1 [11]): no binding (tested: about 700 ng/ml)

B6: AP33 RH-E/RK2bc (antibody, V domains shown)
VH: B1 VH with I67V
VL: B1 VL
binding result (E2 peptide B1 [12]): no binding (tested: about 800 ng/ml)

B7: humanized AP33 antibody RH-H/RK2bc (antibody, V domains shown)
VH: B1 VH with L97R
VL: B1 VL
notes: also called RH-H (peptide ELISA, paired with RK2bc)
binding result (E2 peptide B1 [1]): no binding (tested: at least about 500 ng/ml)
EC50 (read off the curve) (Peptide D3 [13]): ~0.04 µg/mL
EC50 (read off the curve) [14]: ~0.03 µg/mL

B8: AP33 RH-D/RK2bc (antibody, V domains shown)
VH: B1 VH with M48I
VL: B1 VL
EC50 (read off the curve) (Peptide D3 [15]): ~0.04 µg/mL
EC50 (read off the curve) [16]: ~0.04 µg/mL
binding result (E2 peptide B1 [17]): no binding (tested: about 900 ng/ml)

B9: chimeric AP33 antibody (Vh/Vl) (antibody, V domains shown)
VH: EVQLQESGPSLVKPSQTLSLTCSVTGDSITSGYWNWIRKFPGNKLEYMGYISYSGSTYYNLSLRSRISITRDTSKNQYYLQLNSVTTEDTATYYCALITTTTYAMDYWGQGTSVTVS
VL: NIVLTQSPVSLAVSLGQRATISCRASESVDGYGNSFLHWFQQKPGQPPKLLIYLASNLNSGVPARFSGSGSRTDFTLTIDPVEADDAATYYCQQNNVDPWTFGGGTKLEIK
notes: also called chimeric antibody
IC50 of HCVpp infection of Huh-7 cells (luciferase) [18]: 1.1 µg/mL
IC90 of HCVpp infection of Huh-7 cells (luciferase) [18]: 9.31 µg/mL
IC50 of HCVpp infection of Huh-7 cells (luciferase) [19]: 0.48 µg/mL
IC90 of HCVpp infection of Huh-7 cells (luciferase) [19]: 3.2 µg/mL
IC50 of HCVpp infection of Huh-7 cells (luciferase) [20]: 0.88 µg/mL
IC90 of HCVpp infection of Huh-7 cells (luciferase) [20]: 6.67 µg/mL
IC50 of HCVpp infection of Huh-7 cells (luciferase) [21]: < 0.137 µg/mL
IC90 of HCVpp infection of Huh-7 cells (luciferase) [21]: 0.83 µg/mL
IC50 of HCVpp infection of Huh-7 cells (luciferase) [22]: < 0.137 µg/mL
IC90 of HCVpp infection of Huh-7 cells (luciferase) [22]: 3.7 µg/mL
IC50 of HCVpp infection of Huh-7 cells (luciferase) [23]: 1.1 µg/mL
IC90 of HCVpp infection of Huh-7 cells (luciferase) [23]: 11.5 µg/mL
IC50 of HCVpp infection of Huh-7 cells (luciferase) [24]: 1.15 µg/mL
IC90 of HCVpp infection of Huh-7 cells (luciferase) [24]: 11 µg/mL
IC50 of HCVpp infection of Huh-7 cells (luciferase) [25]: 3 µg/mL
IC90 of HCVpp infection of Huh-7 cells (luciferase) [25]: > 15 µg/mL
IC50 of HCVpp infection of Huh-7 cells (luciferase) [26]: 0.088 µg/mL
IC90 of HCVpp infection of Huh-7 cells (luciferase) [26]: 1.11 µg/mL
EC50 (read off the curve) (Peptide D3 [27]): ~0.02 µg/mL

B10: RHb-h/Vl (humanized heavy chain RHb-h with chimeric AP33 light chain) (antibody, V domains shown)
VH: B1 VH
VL: B9 VL
notes: also called RHb-h/V1; the humanized heavy chain
EC50 (read off the curve) (Peptide D3 [28]): ~0.02 µg/mL
EC50 (read off the curve) [29]: ~0.02 µg/mL
binding result (E2 peptide B1 [30]): no binding (tested: about 500 ng/ml)
